Source: FireProtDB (doi:10.1021/bi050502v)

Settings: Locusta migratoria, pH 7.4, CD, Na2HPO4 KH2PO4 10 mM 2 mM, NaCl 127 mM, reversible: yes, whole UniProt chain shown

B1: Apolipophorin-3b wild type, P10762 (protein)
chain: MNTLLAVLMLAVAAQARPDAAGHVNIAEAVQQLNHTIVNAAHELHETLGLPTPDEALNLLTEQANAFKTKIAEVTTSLKQEAEKHQGSVAEQLNRFARNLNNSIHDAATSAQPADQLNSLQSALTNVGHQWQTSQPRPSVAQEAWAPVQSALQEAAEKTKEAAANLQNSIQSAVQKPAN
25 °C, GdnHCl
  denaturant midpoint (higher = more stable): 0.51 M
  unfolding free energy: 2.05 kcal/mol
Thermal
  Tm: 53 °C
